In patent US20170210787A1:

Key:
[1] = molecular target: ptau 187-212 (pY197, pT205 by the sequence printed in Table 11) (human); test: peptide ELISA, 2 ug/mL
[2] = molecular target: ptau 187-212 (pS202, pT205 by the sequence printed in Table 22) (human); test: Ala-scan peptide ELISA, 1 ug/mL

CBTAU-7.1 (antibody), sequence (VH): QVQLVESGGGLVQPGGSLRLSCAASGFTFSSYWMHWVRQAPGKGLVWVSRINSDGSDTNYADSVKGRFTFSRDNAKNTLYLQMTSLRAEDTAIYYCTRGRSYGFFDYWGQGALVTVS
CBTAU-7.1 (antibody), sequence (VL): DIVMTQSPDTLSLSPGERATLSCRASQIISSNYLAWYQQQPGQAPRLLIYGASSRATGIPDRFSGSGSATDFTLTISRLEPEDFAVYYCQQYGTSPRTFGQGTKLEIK

OD450 [1]: 0.5 to 1 od | OD450 [2]: > 1.5 od
Substance: CBTAU-7.1 (antibody)
